B1: PDS5B (parent)
chain: ITYPPGVKEISDKISKEEMVRRLK
B2: ACSBG2 (parent)
chain: TPMTIPEFFRESVNRFGTYPALAS

Variants of: B1
Experiment: protein stability index of a GFP-peptide fusion (GPS, HEK-293T) (PSI 1-6); higher = more stable
Conditions: c terminus: a fixed tail appended
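Further: lentivirally expressed fusions sorted by FACS into six bins by GFP to DsRed ratio, PSI derived from sequencing read proportions per bin multiplied by bin number.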

Compared with ITYPPGVKEISDKISKEEMVRRLF [K24F], ITYPPGVKEISDKISKEEMVRRLH [K24H] is higher in protein stability index: 2.48 for the first, 3.85 for the second.

Going from ITYPPGVKEISDKISKEEMVRRLR [K24R] to ITYPPGVKEISDKISKEEMVRRLL [K24L], the protein stability index falls from 4.2 to 2.81.

Going from ITYPPGVKEISDKISKEEMVRRLI [K24I] to ITYPPGVKEISDKISKEEMVRRLC [K24C], the protein stability index rises from 3.04 to 3.13.

Compared with ITYPPGVKEISDKISKEEMVRRLG [K24G], ITYPPGVKEISDKISKEEMVRRLV [K24V] is lower in protein stability index: 3.77 for the first, 3.61 for the second.

Compared with ITYPPGVKEISDKISKEEMVRRLA [K24A], ITYPPGVKEISDKISKEEMVRRLN [K24N] is higher in protein stability index: 3.58 for the first, 3.77 for the second.

First: ITYPPGVKEISDKISKEEMVRRLM [K24M]
Second: ITYPPGVKEISDKISKEEMVRRLW [K24W]
The protein stability index of the first is higher: 3.11 for the first, 2.72 for the second.

Compared with ITYPPGVKEISDKISKEEMVRRLD [K24D], ITYPPGVKEISDKISKEEMVRRLY [K24Y] is lower in protein stability index: 4.78 for the first, 2.67 for the second.

Going from ITYPPGVKEISDKISKEEMVRRLS [K24S] to ITYPPGVKEISDKISKEEMVRRLT [K24T], the protein stability index rises from 3.23 to 4.13.

Going from ITYPPGVKEISDKISKEEMVRRLE [K24E] to ITYPPGVKEISDKISKEEMVRRQK [L23Q], the protein stability index rises from 4.38 to 4.75.

Compared with ITYPPGVKEISDKISKEEMVRRAK [L23A], ITYPPGVKEISDKISKEEMVRRMK [L23M] is lower in protein stability index: 4.61 for the first, 3.78 for the second.

First: ITYPPGVKEISDKISKEEMVRRWK [L23W]
Second: ITYPPGVKEISDKISKEEMVRRVK [L23V]
The protein stability index of the first is lower: 3.1 for the first, 4.29 for the second.

First: ITYPPGVKEISDKISKEEMVRRDK [L23D]
Second: ITYPPGVKEISDKISKEEMVRRSK [L23S]
The protein stability index of the first is higher: 5.12 for the first, 5.11 for the second.

First: ITYPPGVKEISDKISKEEMVRREK [L23E]
Second: ITYPPGVKEISDKISKEEMVRRHK [L23H]
The protein stability index of the first is higher: 4.84 for the first, 4.08 for the second.

Going from ITYPPGVKEISDKISKEEMVRRNK [L23N] to ITYPPGVKEISDKISKEEMVRRKK [L23K], the protein stability index rises from 4.49 to 4.85.

Compared with ITYPPGVKEISDKISKEEMVRRYK [L23Y], ITYPPGVKEISDKISKEEMVRRPK [L23P] is higher in protein stability index: 3.7 for the first, 4.85 for the second.

Going from ITYPPGVKEISDKISKEEMVRRIK [L23I] to ITYPPGVKEISDKISKEEMVRRRK [L23R], the protein stability index rises from 4.51 to 4.59.

Going from ITYPPGVKEISDKISKEEMVRRGK [L23G] to ITYPPGVKEISDKISKEEMVRRTK [L23T], the protein stability index falls from 4.84 to 4.79.

First: ITYPPGVKEISDKISKEEMVRYLK [R22Y]
Second: ITYPPGVKEISDKISKEEMVRSLK [R22S]
The protein stability index of the first is lower: 2.95 for the first, 4.24 for the second.

First: ITYPPGVKEISDKISKEEMVRNLK [R22N]
Second: ITYPPGVKEISDKISKEEMVRWLK [R22W]
The protein stability index of the first is higher: 4.54 for the first, 2.33 for the second.

ITYPPGVKEISDKISKEEMVRTLK [R22T] gave a protein stability index of 4.41.

Variants of: B2
Experiment: as above
Conditions: c terminus: a fixed tail appended

First: TPMTIPKFFRESVNRFGTYPALAS [E7K]
Second: TPMTIPVFFRESVNRFGTYPALAS [E7V]
The protein stability index of the first is higher: 2.25 for the first, 1.9 for the second.

Compared with TPMTIPHFFRESVNRFGTYPALAS [E7H], TPMTIPWFFRESVNRFGTYPALAS [E7W] is lower in protein stability index: 2.94 for the first, 1.74 for the second.

Compared with TPMTIPNFFRESVNRFGTYPALAS [E7N], TPMTIPGFFRESVNRFGTYPALAS [E7G] is lower in protein stability index: 2.63 for the first, 2.14 for the second.

Going from TPMTIPDFFRESVNRFGTYPALAS [E7D] to TPMTIPCFFRESVNRFGTYPALAS [E7C], the protein stability index rises from 2.13 to 2.19.

First: TPMTIPLFFRESVNRFGTYPALAS [E7L]
Second: TPMTIPRFFRESVNRFGTYPALAS [E7R]
The protein stability index of the first is lower: 2.15 for the first, 2.19 for the second.

First: TPMTIPFFFRESVNRFGTYPALAS [E7F]
Second: TPMTIPSFFRESVNRFGTYPALAS [E7S]
The protein stability index of the first is higher: 2.93 for the first, 2 for the second.

Compared with TPMTIPPFFRESVNRFGTYPALAS [E7P], TPMTIPIFFRESVNRFGTYPALAS [E7I] is higher in protein stability index: 2.24 for the first, 2.65 for the second.

Going from TPMTIPAFFRESVNRFGTYPALAS [E7A] to TPMTIPTFFRESVNRFGTYPALAS [E7T], the protein stability index falls from 2.26 to 2.19.

Going from TPMTIPQFFRESVNRFGTYPALAS [E7Q] to TPMTIPMFFRESVNRFGTYPALAS [E7M], the protein stability index rises from 2.02 to 2.63.

Going from TPMTIPYFFRESVNRFGTYPALAS [E7Y] to RPMTIPEFFRESVNRFGTYPALAS [T1R], the protein stability index rises from 1.52 to 2.34.

First: PPMTIPEFFRESVNRFGTYPALAS [T1P]
Second: APMTIPEFFRESVNRFGTYPALAS [T1A]
The protein stability index of the first is higher: 2.43 for the first, 2.28 for the second.

Compared with DPMTIPEFFRESVNRFGTYPALAS [T1D], FPMTIPEFFRESVNRFGTYPALAS [T1F] is lower in protein stability index: 2.94 for the first, 2.24 for the second.

Going from WPMTIPEFFRESVNRFGTYPALAS [T1W] to KPMTIPEFFRESVNRFGTYPALAS [T1K], the protein stability index rises from 2 to 3.04.

Going from GPMTIPEFFRESVNRFGTYPALAS [T1G] to HPMTIPEFFRESVNRFGTYPALAS [T1H], the protein stability index falls from 2.13 to 2.07.

Compared with EPMTIPEFFRESVNRFGTYPALAS [T1E], MPMTIPEFFRESVNRFGTYPALAS [T1M] is lower in protein stability index: 2.12 for the first, 1.85 for the second.

Compared with IPMTIPEFFRESVNRFGTYPALAS [T1I], SPMTIPEFFRESVNRFGTYPALAS [T1S] is higher in protein stability index: 1.93 for the first, 2.13 for the second.

First: CPMTIPEFFRESVNRFGTYPALAS [T1C]
Second: YPMTIPEFFRESVNRFGTYPALAS [T1Y]
The protein stability index of the first is lower: 1.73 for the first, 2.27 for the second.

Going from QPMTIPEFFRESVNRFGTYPALAS [T1Q] to VPMTIPEFFRESVNRFGTYPALAS [T1V], the protein stability index falls from 2.44 to 1.93.

Going from NPMTIPEFFRESVNRFGTYPALAS [T1N] to LPMTIPEFFRESVNRFGTYPALAS [T1L], the protein stability index falls from 2.12 to 2.08.

Going from TYMTIPEFFRESVNRFGTYPALAS [P2Y] to TDMTIPEFFRESVNRFGTYPALAS [P2D], the protein stability index falls from 2.88 to 2.65.

Going from TFMTIPEFFRESVNRFGTYPALAS [P2F] to TGMTIPEFFRESVNRFGTYPALAS [P2G], the protein stability index rises from 1.83 to 2.12.

First: TNMTIPEFFRESVNRFGTYPALAS [P2N]
Second: TVMTIPEFFRESVNRFGTYPALAS [P2V]
The protein stability index of the first is higher: 2.2 for the first, 1.98 for the second.

First: TMMTIPEFFRESVNRFGTYPALAS [P2M]
Second: TTMTIPEFFRESVNRFGTYPALAS [P2T]
The protein stability index of the first is higher: 2.55 for the first, 2.35 for the second.

Going from TSMTIPEFFRESVNRFGTYPALAS [P2S] to TLMTIPEFFRESVNRFGTYPALAS [P2L], the protein stability index falls from 2.41 to 1.93.

First: TRMTIPEFFRESVNRFGTYPALAS [P2R]
Second: TWMTIPEFFRESVNRFGTYPALAS [P2W]
The protein stability index of the first is higher: 2.12 for the first, 1.4 for the second.

First: TIMTIPEFFRESVNRFGTYPALAS [P2I]
Second: TCMTIPEFFRESVNRFGTYPALAS [P2C]
The protein stability index of the first is lower: 1.44 for the first, 1.72 for the second.

Going from TAMTIPEFFRESVNRFGTYPALAS [P2A] to TEMTIPEFFRESVNRFGTYPALAS [P2E], the protein stability index rises from 2 to 2.89.

THMTIPEFFRESVNRFGTYPALAS [P2H] showed a protein stability index of 2.29.

From the supplement of paper PMC10567573
